{"source": "patent US20220204643A1", "about": "(published 2022)", "binders": {"B1": {"name": "TBLA1003 (antibody, V domains shown)", "VH": "EVQLVESGGGLIQPGRSLRLSCAASGFTFEDYAMHWVRQAPGKGLEWVSGISWNSGNIGYADSVKGRFTISRDNAKNSLYLQMHSLRPEDTALYYCAKDINFFGLGTGGGAMDVWGQGTTVTVSS", "VL": "DIQMTQSPSYVSASVGDRVTITCRASQGIDVWLAWYQQKPGKAPKLLIYTASSLQSGVPSRFSGSGGGTEFTLTISSLQPEDFATYYCQQSNSFPGTFGPGTKVDVKR", "notes": "detected with anti-human IgG Fc"}, "B2": {"name": "TBLA1004 (antibody, V domains shown)", "VH": "QITLKESGPTLVKPTQTLTLTCTFSGFSLSTSGVGVGWIRQPPGKALEWLALIYWDDDKRYSPSLKSRLTITKDTSKNQVVLTMTNMDPVDTATYYCAHRAIVGLFDYWGQGTLVTVSS", "VL": "PSVLTQPPSASGTPGQRVTISCSGSSSNIGSNYVYWYQQLPGTAPKFLIYRNNQRPSGVPDRFSGSKSGTSASLAISGLRSEDEADYYCAAWEDSLSGPVFGGGTKLTVL", "notes": "as for B1"}, "B3": {"name": "TBRE1012 (antibody, V domains shown)", "VH": "QVQLQESGPGLVKPTQTLSLTCTVSGGSISSGSYYWNWIRQPAGKGLEWIGNIYTSGNTDYNPSLKSRVTISLDTSKNQVSLNLTSVTAADTAVYYCATTPSSSWYWYFDPWGQGTLVTVSS", "VL": "DLQMTQSPSSLSASIGDRVTITCRASQSISTYFNWYQQKPGKAPKLLIYAASSLQSGVPSRFSGSGSGTDFTLTITSLQPEDFATYYCQQTYSNPWTFGQGTKVDFKR", "notes": "VH/VL only"}, "B4": {"name": "TBLA1006 (antibody, V domains shown)", "VH": "VQLVDSGGGLVQPGRSLRLSCAASGFVFDDYAMHWVRQVPGKGLEWVSGISWNSVSIGYADSVKGRFTISRDNAKNSLYLQMNSLRPEDAALYYCVKSFSAEYYYYYYGMDVWGQGTTVTVSS", "VL": "LYVLTQPPSVSVAPGTTAWISCGGNNIGIKSVHWYQQKPGQAPLLVISYDSDRPSVIPERFSVSNSGNTVTLTISRVEAGDEADYYCQVWDNGHSHWVFGGGTKLTVLG", "notes": "as for B1"}, "B5": {"name": "TBLA1007 (antibody, V domains shown)", "VH": "QVQLVQSGAEVKKPGASVKVSCKASGYTFTNYGFSWVRQAPGQGLEWMGRITTYNRDTIYAQKFQGRVTMTTDTSTSTAYMELRSLRSDDTAVYFCARVVPGDSVYGAFDIWGQGTMVTVSS", "VL": "DIQMTQSPSSLSASVGDRVTITCRASQSISSYLNWYQQKPGRAPRLLIYAASRLQIGVPSRFSGSGSGTDFTLTISSLQPEDFATYYCQQSYRMPCSFGQGTKLEI", "notes": "as for B1"}}, "key": {"[1]": {"biological_target": "T1, zinc finger DHHC-type containing 1, transcript variant 1 (human, UniProt Q8WTX9 1-485)", "T1 construct": "HuProt array protein, full-length recombinant from yeast; also called ZDHHC1", "T1 sequence": "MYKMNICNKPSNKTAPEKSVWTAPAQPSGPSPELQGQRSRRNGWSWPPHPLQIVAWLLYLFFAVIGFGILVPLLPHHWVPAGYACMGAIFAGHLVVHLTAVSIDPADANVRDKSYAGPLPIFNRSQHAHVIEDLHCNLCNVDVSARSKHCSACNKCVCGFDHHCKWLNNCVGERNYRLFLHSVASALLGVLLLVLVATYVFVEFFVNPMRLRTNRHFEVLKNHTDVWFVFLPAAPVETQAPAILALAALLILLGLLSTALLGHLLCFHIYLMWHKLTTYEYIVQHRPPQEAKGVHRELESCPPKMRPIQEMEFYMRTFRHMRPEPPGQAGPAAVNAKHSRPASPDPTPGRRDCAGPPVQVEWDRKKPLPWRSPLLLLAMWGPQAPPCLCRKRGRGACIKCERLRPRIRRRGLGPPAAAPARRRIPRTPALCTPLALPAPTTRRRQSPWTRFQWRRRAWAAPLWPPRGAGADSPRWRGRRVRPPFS"}, "[2]": {"biological_target": "T2, retinoid X receptor alpha, transcript variant 1 (human, UniProt P19793 1-462)", "T2 construct": "HuProt array protein, full-length recombinant from yeast; also called RXRA", "T2 sequence": "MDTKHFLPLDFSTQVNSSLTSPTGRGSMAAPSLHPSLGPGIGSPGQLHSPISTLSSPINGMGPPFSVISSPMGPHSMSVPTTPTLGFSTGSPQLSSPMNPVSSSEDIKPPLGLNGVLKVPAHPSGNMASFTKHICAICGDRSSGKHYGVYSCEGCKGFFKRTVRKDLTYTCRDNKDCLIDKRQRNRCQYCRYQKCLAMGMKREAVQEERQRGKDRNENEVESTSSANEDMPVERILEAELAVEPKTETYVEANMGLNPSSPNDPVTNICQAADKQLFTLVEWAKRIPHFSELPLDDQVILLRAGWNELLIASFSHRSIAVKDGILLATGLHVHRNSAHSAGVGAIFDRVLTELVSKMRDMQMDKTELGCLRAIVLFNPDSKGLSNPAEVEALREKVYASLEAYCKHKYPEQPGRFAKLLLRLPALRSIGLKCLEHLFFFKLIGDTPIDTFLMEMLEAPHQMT"}, "[3]": {"biological_target": "T3, membrane palmitoylated protein 2, transcript variant 3 (human, UniProt Q14168 1-576)", "T3 construct": "on protein array; also called MPP2", "T3 sequence": "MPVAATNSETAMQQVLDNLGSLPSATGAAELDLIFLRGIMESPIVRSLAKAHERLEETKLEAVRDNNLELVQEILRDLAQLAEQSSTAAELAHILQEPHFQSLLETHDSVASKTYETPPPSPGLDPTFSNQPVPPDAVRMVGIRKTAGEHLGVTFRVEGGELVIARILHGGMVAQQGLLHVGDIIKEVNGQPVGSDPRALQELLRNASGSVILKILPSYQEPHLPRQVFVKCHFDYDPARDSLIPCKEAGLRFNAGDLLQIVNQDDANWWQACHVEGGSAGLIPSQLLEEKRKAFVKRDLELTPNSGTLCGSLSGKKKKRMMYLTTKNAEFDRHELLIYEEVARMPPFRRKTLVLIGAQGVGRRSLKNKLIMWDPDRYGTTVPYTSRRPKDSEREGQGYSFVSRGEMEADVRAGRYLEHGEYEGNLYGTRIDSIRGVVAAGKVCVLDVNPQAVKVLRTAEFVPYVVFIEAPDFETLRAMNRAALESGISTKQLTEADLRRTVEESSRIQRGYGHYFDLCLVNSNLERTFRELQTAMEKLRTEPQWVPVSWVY", "experiment": "protein array"}, "[4]": {"biological_target": "T4, kelch like family member 40 (human, UniProt Q2TBA0 1-621)", "T4 construct": "on protein array; also called KLHL40", "T4 sequence": "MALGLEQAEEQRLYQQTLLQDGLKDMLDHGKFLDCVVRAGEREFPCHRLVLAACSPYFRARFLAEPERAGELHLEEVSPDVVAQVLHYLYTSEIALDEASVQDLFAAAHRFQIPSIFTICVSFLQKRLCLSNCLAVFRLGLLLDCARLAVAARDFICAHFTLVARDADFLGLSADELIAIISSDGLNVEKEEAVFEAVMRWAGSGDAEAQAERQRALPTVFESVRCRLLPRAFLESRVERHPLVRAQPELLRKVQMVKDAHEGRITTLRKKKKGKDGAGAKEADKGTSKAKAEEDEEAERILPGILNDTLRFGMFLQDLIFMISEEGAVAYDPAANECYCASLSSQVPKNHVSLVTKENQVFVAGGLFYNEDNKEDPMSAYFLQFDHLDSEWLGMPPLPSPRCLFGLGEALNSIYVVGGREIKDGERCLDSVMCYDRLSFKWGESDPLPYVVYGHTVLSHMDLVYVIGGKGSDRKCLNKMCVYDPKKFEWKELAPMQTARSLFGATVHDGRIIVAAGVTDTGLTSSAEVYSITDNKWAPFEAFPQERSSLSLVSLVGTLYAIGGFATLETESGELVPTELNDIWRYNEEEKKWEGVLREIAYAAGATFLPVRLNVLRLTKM", "experiment": "protein array"}, "[5]": {"biological_target": "T5, SNAP associated protein, transcript variant 1 (human, UniProt O95295 2-136)", "T5 construct": "HuProt array protein, full-length recombinant from yeast; also called SNAPIN", "T5 sequence": "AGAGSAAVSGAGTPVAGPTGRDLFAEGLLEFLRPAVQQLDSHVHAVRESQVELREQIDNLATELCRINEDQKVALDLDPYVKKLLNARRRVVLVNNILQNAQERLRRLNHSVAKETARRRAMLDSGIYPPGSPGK"}, "[6]": {"biological_target": "T6, glycogen phosphorylase L, transcript variant 1 (human, UniProt P06737 2-847)", "T6 construct": "HuProt array protein, full-length recombinant from yeast; also called PYGL", "T6 sequence": "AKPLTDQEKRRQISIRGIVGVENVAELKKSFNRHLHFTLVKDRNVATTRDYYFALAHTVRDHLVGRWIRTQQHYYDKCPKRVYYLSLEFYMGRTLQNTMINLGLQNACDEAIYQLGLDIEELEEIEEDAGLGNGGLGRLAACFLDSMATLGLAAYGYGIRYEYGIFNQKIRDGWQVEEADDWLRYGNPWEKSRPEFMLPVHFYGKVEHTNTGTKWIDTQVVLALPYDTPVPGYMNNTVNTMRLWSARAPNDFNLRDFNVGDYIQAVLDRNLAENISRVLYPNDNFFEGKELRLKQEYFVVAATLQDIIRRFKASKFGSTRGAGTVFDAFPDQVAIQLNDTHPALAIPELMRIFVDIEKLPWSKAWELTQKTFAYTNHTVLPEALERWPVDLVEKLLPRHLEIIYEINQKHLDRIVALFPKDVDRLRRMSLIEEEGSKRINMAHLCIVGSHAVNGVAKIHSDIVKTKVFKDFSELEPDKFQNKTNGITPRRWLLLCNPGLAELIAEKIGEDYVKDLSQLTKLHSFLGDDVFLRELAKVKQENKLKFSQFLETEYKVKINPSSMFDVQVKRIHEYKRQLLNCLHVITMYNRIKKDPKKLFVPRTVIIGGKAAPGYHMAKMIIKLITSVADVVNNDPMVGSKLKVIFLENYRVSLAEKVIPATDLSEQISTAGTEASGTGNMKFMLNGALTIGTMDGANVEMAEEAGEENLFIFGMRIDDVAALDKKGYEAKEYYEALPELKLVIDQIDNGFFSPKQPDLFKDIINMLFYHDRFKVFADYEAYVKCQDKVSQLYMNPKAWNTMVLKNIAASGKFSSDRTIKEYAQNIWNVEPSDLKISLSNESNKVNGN"}, "Reticulocalbin 3": {"biological_target": "T7, Reticulocalbin 3 (human, UniProt Q96D15 21-328)", "T7 construct": "HuProt array protein, full-length recombinant from yeast; also called RCN3", "T7 sequence": "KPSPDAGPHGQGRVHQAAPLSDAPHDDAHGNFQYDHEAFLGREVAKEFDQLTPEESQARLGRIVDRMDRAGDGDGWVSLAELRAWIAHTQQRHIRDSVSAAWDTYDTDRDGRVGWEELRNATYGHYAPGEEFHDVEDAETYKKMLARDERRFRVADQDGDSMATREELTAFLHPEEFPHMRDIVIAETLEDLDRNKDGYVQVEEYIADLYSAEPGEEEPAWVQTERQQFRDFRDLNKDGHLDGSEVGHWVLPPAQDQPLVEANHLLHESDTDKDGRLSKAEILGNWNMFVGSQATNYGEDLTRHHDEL"}, "[7]": {"biological_target": "T8, synaptotagmin 12, transcript variant X4 (human, UniProt Q8IV01 1-421)", "T8 construct": "HuProt array protein, full-length recombinant from yeast; also called SYT12", "T8 sequence": "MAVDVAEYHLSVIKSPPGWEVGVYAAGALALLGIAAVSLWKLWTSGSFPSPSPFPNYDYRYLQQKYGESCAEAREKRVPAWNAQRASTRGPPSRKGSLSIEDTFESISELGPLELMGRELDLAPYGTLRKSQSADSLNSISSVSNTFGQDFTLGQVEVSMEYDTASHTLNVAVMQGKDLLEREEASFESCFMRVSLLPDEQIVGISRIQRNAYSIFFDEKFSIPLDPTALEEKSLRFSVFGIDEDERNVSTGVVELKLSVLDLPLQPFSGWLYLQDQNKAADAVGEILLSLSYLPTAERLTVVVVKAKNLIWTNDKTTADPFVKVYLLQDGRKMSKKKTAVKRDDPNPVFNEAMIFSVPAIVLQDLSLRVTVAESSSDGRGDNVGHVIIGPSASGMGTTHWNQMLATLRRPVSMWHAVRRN"}}}
{"binder": "B1", "values": [{"measurement": "binding result", "setting": "[1]", "value": "binds"}]}
{"binder": "B2", "values": [{"measurement": "binding result", "setting": "[2]", "value": "binds"}]}
{"binder": "B3", "values": [{"measurement": "binding result", "setting": "[3]", "value": "binds"}, {"measurement": "binding result", "setting": "[4]", "value": "binds"}]}
{"binder": "B4", "values": [{"measurement": "binding result", "setting": "[5]", "value": "binds"}]}
{"binder": "B5", "values": [{"measurement": "binding result", "setting": "[6]", "value": "binds"}, {"measurement": "binding result", "setting": "Reticulocalbin 3", "value": "binds"}, {"measurement": "binding result", "setting": "[7]", "value": "binds"}]}
